In patent publication US6858210B1, “Therapeutic and diagnostic domain 1 β2GPI polypeptides and methods of using same” (La Jolla Pharmaceutical Co., priority 1998, dated 2005):
Like-named read-outs stand apart in the source and are kept apart here.

Key:
[1] = test system: affinity purified β2GPI-dependent antiphospholipid antibody; test: Direct binding ELISA, nickel chelate-coated wells charged with recombinant β2GPI proteins (no cardiolipin); design: species or system human; details: O.D. at 550 nm
Method in brief: (§1)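 His-tagged recombinant β2GPI mutants captured on nickel chelate wells in serial dilution (2 h, room temperature), no anionic phospholipid; GST-6his as negative control. Affinity-purified patient antibodies (11 patients) or rabbit anti-β2GPI detected by alkaline phosphatase anti-IgG, OD 550 nm.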

rabbit anti-β2GPI = test: Direct binding ELISA, nickel chelate-coated wells, rabbit antibody; details: O.D. at 550 nm
Method in brief: as §1

[2] = test system: affinity purified β2GPI-dependent antiphospholipid antibody; test: Competitive inhibition ELISA: recombinant β2GPI proteins compete for antibody binding to coated full length recombinant β2GPI; design: species or system human; details: for IC50: read-out: 50% (concentration to give 50% inhibition)
Method in brief: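 Wells coated with full-length recombinant β2GPI (10 μg/ml, pH 9.5) and milk-blocked. Serially diluted recombinant β2GPI proteins were co-incubated with a fixed concentration of patient antibody for 1 h at 37 °C. Bound IgG detected with alkaline phosphatase anti-human IgG at OD550; percent inhibition is background-corrected against inhibitor-free wells.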

Max (maximum inhibition observed at concentrations tested) ([2]; Ab 6203): 10%
IC50 ([2]; Ab 6203): > 57 µM
Max (maximum inhibition observed at concentrations tested) ([2]; Ab 6501): 20%
IC50 ([2]; Ab 6501): > 57 µM
Max (maximum inhibition observed at concentrations tested) ([2]; Ab 6509): 20%
IC50 ([2]; Ab 6509): > 16 µM
Max (maximum inhibition observed at concentrations tested) ([2]; Ab 6626): 18%
IC50 ([2]; Ab 6626): > 57 µM
Max (maximum inhibition observed at concentrations tested) ([2]; Ab 6632): 20%
IC50 ([2]; Ab 6632): > 57 µM
Max (maximum inhibition observed at concentrations tested) ([2]; Ab 6641): 20%
IC50 ([2]; Ab 6641): > 16 µM
Max (maximum inhibition observed at concentrations tested) ([2]; Ab 6644): 10%
IC50 ([2]; Ab 6644): > 57 µM
Max (maximum inhibition observed at concentrations tested) ([2]; Ab 6652): 40%
IC50 ([2]; Ab 6652): > 16 µM
Max (maximum inhibition observed at concentrations tested) ([2]; Ab 6701): 10%
IC50 ([2]; Ab 6701): > 16 µM
Max (maximum inhibition observed at concentrations tested) ([2]; Ab 7008): 20%
IC50 ([2]; Ab 7008): > 57 µM
Max (maximum inhibition observed at concentrations tested) ([2]; Ab 7015): 10%
IC50 ([2]; Ab 7015): > 57 µM
Max (maximum inhibition observed at concentrations tested) ([2]; Ab 7101): 5%
IC50 ([2]; Ab 7101): > 57 µM
Max (maximum inhibition observed at concentrations tested) ([2]; Ab 7104): 10%
IC50 ([2]; Ab 7104): > 57 µM
B1: -2345: recombinant β2GPI deletion mutant with domains 2-5 (protein)
chain: GRTPRVCPFAGILENGAVRYTTFEYPNTISFSCNTGFYLNGADSAKCTEEGKWSPELPVCAPIICPPPSIPTFATLRVYKPSAGNNSLYRDTAVFECLPQHAMFGNDTITCTTHGNWTKLPECREVKCPFPSRPDNGFVNYPAKPTLYYKDKATFGCHDGYSLDGPEEIECTKLGNWSAMPSCKASCKLPVKKATVVYQGERVKIQEKFKNGMLHGDKVSFFCKNKEKKCSYTEDAQCIDGTIEVPKCFKEHSSLAFWKTDASDVKPCGHHHHHH
Maximum O.D. ([1]; Ab 6203): 0.074
Maximum O.D. ([1]; Ab 6501): 0.018
Maximum O.D. ([1]; Ab 6626): 0.008
Maximum O.D. ([1]; Ab 6632): 0.031
Maximum O.D. ([1]; Ab 6641): 0.045
Maximum O.D. ([1]; Ab 6644): 0.041
Maximum O.D. ([1]; Ab 6652): 0.008
Maximum O.D. ([1]; Ab 6701): 0.002
Maximum O.D. ([1]; Ab 7008): 0.019
Maximum O.D. ([1]; Ab 7015): 0.114
Maximum O.D. ([1]; Ab 7101): 0.056
Maximum O.D. (rabbit anti-β2GPI): 1.873
